# Test system: Escherichia coli TOP10
# Test: shrunken log2 fold change of peptide-encoding DNA abundance (4.5 h post-induction vs induction); higher = less antimicrobial activity (less host growth inhibition)
# Settings: time post-induction: 4.5 h; library: site-saturation at positions 5, 18, 19, 20
# 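Note: peptides expressed intracellularly from a pBAD plasmid library in pooled LB shake-flask culture, induced with 0.3% L-arabinose, DNA abundance read by NGS, three biological replicates, DESeq2 with apeglm shrinkage.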
row,Sequence,shrunken log2 fold change
1,RRIRMRPPRLPRPRPRPKTPPRP,3.35
2,RRIRWRPPRLPRPRPRPQMIPRP,-0.0866
3,RRIRDRPPRLPRPRPRPDWMPRP,0.0771
4,RRIRHRPPRLPRPRPRPTKFPRP,-0.138
5,RRIRMRPPRLPRPRPRPHVDPRP,0.51
6,RRIRVRPPRLPRPRPRPNEIPRP,-0.52
7,RRIRPRPPRLPRPRPRPLEMPRP,0.0597
8,RRIRIRPPRLPRPRPRPDYSPRP,-1.21
9,RRIRQRPPRLPRPRPRPQWCPRP,0.142
10,RRIRTRPPRLPRPRPRPPTVPRP,0.44
11,RRIRERPPRLPRPRPRPGASPRP,0.075
12,RRIRNRPPRLPRPRPRPGDNPRP,0.0229
13,RRIRLRPPRLPRPRPRPAWVPRP,-0.0218
14,RRIRCRPPRLPRPRPRPNFEPRP,-0.0286
15,RRIRYRPPRLPRPRPRPCLWPRP,-0.481
16,RRIRHRPPRLPRPRPRPYFSPRP,-0.129
17,RRIRERPPRLPRPRPRPMHMPRP,-0.000687
18,RRIRYRPPRLPRPRPRPKGYPRP,-0.0889
19,RRIRQRPPRLPRPRPRPSQCPRP,-0.0618
20,RRIRYRPPRLPRPRPRPHPKPRP,-0.0588
21,RRIRYRPPRLPRPRPRPAGSPRP,0.0105
22,RRIRARPPRLPRPRPRPNWCPRP,0.206

row,Sequence,shrunken log2 fold change
1,RRIRHRPPRLPRPRPRPEDWPRP,0.83
2,RRIRVRPPRLPRPRPRPNHTPRP,-0.402
3,RRIRGRPPRLPRPRPRPFMPPRP,-0.0647
4,RRIRRRPPRLPRPRPRPNEIPRP,-0.0559
5,RRIRYRPPRLPRPRPRPRMSPRP,0.256
6,RRIRGRPPRLPRPRPRPVVTPRP,-0.216
7,RRIRLRPPRLPRPRPRPAMPPRP,0.234
8,RRIRMRPPRLPRPRPRPNSTPRP,0.0221
9,RRIRDRPPRLPRPRPRPMDSPRP,-0.0175
10,RRIRHRPPRLPRPRPRPLPTPRP,0.245
11,RRIRRRPPRLPRPRPRPKMWPRP,0.216
12,RRIRDRPPRLPRPRPRPYYNPRP,-1.01
13,RRIRQRPPRLPRPRPRPDKHPRP,-0.205
14,RRIRGRPPRLPRPRPRPQCCPRP,0.168
15,RRIRMRPPRLPRPRPRPTFIPRP,-0.027
16,RRIRCRPPRLPRPRPRPNARPRP,0.00577
17,RRIRPRPPRLPRPRPRPRKIPRP,-0.0764
18,RRIRYRPPRLPRPRPRPMFFPRP,-0.618
19,RRIRNRPPRLPRPRPRPIKNPRP,-0.108
20,RRIRTRPPRLPRPRPRPPYEPRP,0.0319
21,RRIRSRPPRLPRPRPRPDVSPRP,-0.0357
22,RRIRPRPPRLPRPRPRPQDEPRP,0.0996

row,Sequence,shrunken log2 fold change
1,RRIRLRPPRLPRPRPRPSILPRP,-0.57
2,RRIRERPPRLPRPRPRPAAGPRP,0.315
3,RRIRSRPPRLPRPRPRPENRPRP,-0.114
4,RRIRLRPPRLPRPRPRPYSFPRP,-0.841
5,RRIRWRPPRLPRPRPRPDTLPRP,-0.134
6,RRIRKRPPRLPRPRPRPMWRPRP,0.481
7,RRIRPRPPRLPRPRPRPYEWPRP,-0.874
8,RRIRWRPPRLPRPRPRPFWTPRP,0.0519
9,RRIRYRPPRLPRPRPRPVVRPRP,-0.203
10,RRIRARPPRLPRPRPRPWAFPRP,0.222
11,RRIRIRPPRLPRPRPRPIYGPRP,-0.000842
12,RRIRCRPPRLPRPRPRPFMVPRP,-0.502
13,RRIRLRPPRLPRPRPRPTSPPRP,-0.0576
14,RRIRDRPPRLPRPRPRPVVTPRP,0.689
15,RRIRCRPPRLPRPRPRPTMLPRP,-0.096
16,RRIRFRPPRLPRPRPRPEDPPRP,0.379
17,RRIRTRPPRLPRPRPRPVMPPRP,0.372
18,RRIRNRPPRLPRPRPRPWSTPRP,-0.0852
19,RRIRCRPPRLPRPRPRPPSWPRP,0.194
20,RRIRTRPPRLPRPRPRPQKLPRP,-0.364
21,RRIRGRPPRLPRPRPRPCMNPRP,0.104
22,RRIRQRPPRLPRPRPRPPCMPRP,-0.0968

row,Sequence,shrunken log2 fold change
1,RRIRIRPPRLPRPRPRPVIFPRP,-0.402
2,RRIRHRPPRLPRPRPRPYITPRP,-1.23
3,RRIRGRPPRLPRPRPRPFRQPRP,0.124
4,RRIRIRPPRLPRPRPRPPIDPRP,-0.724
5,RRIRDRPPRLPRPRPRPALQPRP,0.671
6,RRIRNRPPRLPRPRPRPRLTPRP,0.252
7,RRIRMRPPRLPRPRPRPYYTPRP,0.0968
8,RRIRGRPPRLPRPRPRPNVFPRP,0.27
9,RRIRMRPPRLPRPRPRPDDYPRP,0.766
10,RRIRCRPPRLPRPRPRPLMNPRP,-0.645
11,RRIRLRPPRLPRPRPRPCDWPRP,0.201
12,RRIRTRPPRLPRPRPRPFVDPRP,-0.0538
13,RRIRKRPPRLPRPRPRPTSCPRP,0.174
14,RRIRDRPPRLPRPRPRPCFYPRP,-0.167
15,RRIRTRPPRLPRPRPRPPGDPRP,0.189
16,RRIRKRPPRLPRPRPRPWRVPRP,0.122
17,RRIRRRPPRLPRPRPRPSFKPRP,-0.117
18,RRIRLRPPRLPRPRPRPGCYPRP,-0.115
19,RRIRLRPPRLPRPRPRPCHIPRP,-0.113
20,RRIRARPPRLPRPRPRPSNEPRP,0.167
21,RRIRERPPRLPRPRPRPSKQPRP,0.0844
22,RRIRQRPPRLPRPRPRPFVTPRP,-1.13

row,Sequence,shrunken log2 fold change
1,RRIRRRPPRLPRPRPRPKFQPRP,-0.00642
2,RRIRHRPPRLPRPRPRPQLDPRP,0.153
3,RRIRGRPPRLPRPRPRPFVLPRP,-0.000308
4,RRIRLRPPRLPRPRPRPMSLPRP,-0.0224
5,RRIRQRPPRLPRPRPRPGREPRP,0.221
6,RRIRMRPPRLPRPRPRPLVVPRP,0.0644
7,RRIRPRPPRLPRPRPRPNSPPRP,-0.255
8,RRIRERPPRLPRPRPRPYHHPRP,-1.56
9,RRIRSRPPRLPRPRPRPMPLPRP,-0.0685
10,RRIRIRPPRLPRPRPRPYSKPRP,-1.2
11,RRIRHRPPRLPRPRPRPADCPRP,-0.395
12,RRIRLRPPRLPRPRPRPYCRPRP,-0.256
13,RRIRMRPPRLPRPRPRPKDCPRP,-0.0772
14,RRIRFRPPRLPRPRPRPTRIPRP,0.0179
15,RRIRDRPPRLPRPRPRPEAHPRP,-0.00146
16,RRIRARPPRLPRPRPRPKAYPRP,0.088
17,RRIRWRPPRLPRPRPRPAVVPRP,0.0979
18,RRIRKRPPRLPRPRPRPCMSPRP,-0.0865
19,RRIRCRPPRLPRPRPRPAGMPRP,0.104
20,RRIRHRPPRLPRPRPRPYCLPRP,-0.524
21,RRIRPRPPRLPRPRPRPLHVPRP,-0.163
